B1: HDV Ribozyme (parent)
chain: GGCCGGCAUGGUCCCAGCCUCCUCGCUGGCGCCGGCUGGGCAACAUUCCGAGGGGACCGUCCCCUCGGUAAUGGCGAAUGGGACCCA

Variants of: B1
Test: self-cleavage, relative activity (ratio to wild type); higher = more cleavage; co-transcriptional

Variant | self-cleavage
GGCCGGCAUGGUCCCAGCCUCCUCGCUGGCGCCGGGUGGGCAACAUUCCGAGGGGACCGUCCCCUCGGUAAUGGCGAAUGGGAACCA | 0.0773
GGCCGGCAUGGUCCCAGCCUCCUCGCUGGCGCCGGGUGGGCAACAUUCCGAGGGGACCGUCCCCUCGGUAAUGGCGAAUGGGAGCCA | 0.116
GGCCGGCAUGGUCCCAGCCUCCUCGCUGGCGCCGGGUGGGCAACAUUCCGAGGGGACCGUCCCCUCGGUAAUGGCGAAUGGGAUCCA | 0.0755
GGCCGGCAUGGUCCCAGCCUCCUCGCUGGCGCCGGGUGGGCAACAUUCCGAGGGGACCGUCCCCUCGGUAAUGGCGAAUGGCACCCA | 0.141
GGCCGGCAUGGUCCCAGCCUCCUCGCUGGCGCCGGGUCGGCAACAUUCCGAGGGGACCGUCCCCUCGGUAAUGGCGAAUGGGACCCA | 0.208
GGCCGGCAUGGUCCCAGCCUCCUCGCUGGCGCCGGGUGGGCAACAUUCCGAGGGGACCGUCCCCUCGGUAAUGGCGAAUUGGACCCA | 0.0507
GGCCGGCAUGGUCCCAGCCUCCUCGCUGGCGCCGGGUGGGCAACAUUCCGAGGGGACCGUCCCCUCGGUAAUGGCGAAUAGGACCCA | 0.0382
GGCCGGCAUGGUCCCAGCCUCCUCGCUGGCGCCGGGUGGGCAACAUUCCGAGGGGACCGUCCCCUCGGUAAUGGCGAAUCGGACCCA | 0.108
GGCCGGCAUGGUCCCAGCCUCCUCGCUGGCGCCGGGUGGGCAACAUUCCAAGGGGACCGUCCCCUCGGUAAUGGCGAAUGGGACCCA | 0.109
GGCCGGCAUGGUCCCAGCCUCCUCGCUGGCGCCGGGUGGGCAACAUUCCCAGGGGACCGUCCCCUCGGUAAUGGCGAAUGGGACCCA | 0.0437
GGCCGGCAUGGUCCCAGCCUCCUCGCUGGCGCCGGGUGGGCAACAUUCCGAGGGGACCGUCCCCUCGGUAAUGGCCAAUGGGACCCA | 0.0692
GGCCGGCAUGGUCCCAGCCUCCUCGCUGGCGCCGGGUGGACAACAUUCCGAGGGGACCGUCCCCUCGGUAAUGGCGAAUGGGACCCA | 0.157
GGCCGGCAUGGUCCCAGCCUCCUCGCUGGCGCCGGGUGGCCAACAUUCCGAGGGGACCGUCCCCUCGGUAAUGGCGAAUGGGACCCA | 0.185
GGCCGGCAUGGUCCCAGCCUCCUCGCUGGCGCCGGGUGGUCAACAUUCCGAGGGGACCGUCCCCUCGGUAAUGGCGAAUGGGACCCA | 0.108
GGCCGGCAUGGUCCCAGCCUCCUCGCUGGCGCCGGGUGGGCAACAUUCCGAGGGGACCGUCCCCUGGGUAAUGGCGAAUGGGACCCA | 0.237
GGCCGGCAUGGUCCCAGCCUCCUCGCUGGCGCCGGGUGGGCAACAUUCCGAGGGGACCGUCCCCUCGGUAAUGGCGAAUGGGACCGA | 0.119

Variant | self-cleavage
GGCCGGCAUGGUCCCAGCCUCCUCGCUGGCGCCGGGUGGGCAACAUUCCGAGGGGACCGUCCCCUCGGUAAUGGCGAAUGGGACCAA | 0.181
GGCCGGCAUGGUCCCAGCCUCCUCGCUGGCGCCGGGUGGGCAACAUUCCGAGGGCACCGUCCCCUCGGUAAUGGCGAAUGGGACCCA | 0.0314
GGCCGGCAUGGUCCCAGCCUCCUCGCUGGCGCCGGGUGGGCAACAUUCCGAGGGUACCGUCCCCUCGGUAAUGGCGAAUGGGACCCA | 0.032
GGCCGGCAUGGUCCCAGCCUCCUCGCUGGCGCCGGGUGGGCAACAUUCCGAGGUGACCGUCCCCUCGGUAAUGGCGAAUGGGACCCA | 0.166
GGCCGGCAUGGUCCCAGCCUCCUCGCUGGCGCCGGGUGGGCAACAUUCCGAGGGGACCAUCCCCUCGGUAAUGGCGAAUGGGACCCA | 0.169
GGCCGGCAUGGUCCCAGCCUCCUCGCUGGCGCCGGGUGGGCAACAUUCCGAGGGGACCGUCCCCUCGGUAAUGACGAAUGGGACCCA | 0.0779
GGCCGGCAUGGUCCCAGCCUCCUCGCUGGCGCCGGGUGUGCAACAUUCCGAGGGGACCGUCCCCUCGGUAAUGGCGAAUGGGACCCA | 0.0652
GGCCGGCAUGGUCCCAGCCUCCUCGCUGGCGCCGGGUGGGCAACAUUCCGAGGGGACCGUCCCCUCGGUAAUGGAGAAUGGGACCCA | 0.151
GGCCGGCAUGGUCCCAGCCUCCUCGCUGGCGCCGGGUGGGCAACAUUCCGAGGGGACCGUCCCCUCGGUAAUGGUGAAUGGGACCCA | 0.233
GGCCGGCAUGGUCCCAGCCUCCUCGCUGGCGCCGGGUGGGCAACAUUCCGAGGGGACCGUCCCCUCGGUAAUGGGGAAUGGGACCCA | 0.0773
GGCCGGCAUGGUCCCAGCCUCCUCGCUGGCGCCGGGUGGGCAACAUUCCGAGGGGACCGUCCCCUCGGUAAUGGCGAAUGUGACCCA | 0.114
GGCCGGCAUGGUCCCAGCCUCCUCGCUGGCGCCGGGUGGGCAACAUUCCGAGGGGACCGUCCCCUCGGUAAUGGCGAAUGAGACCCA | 0.0545
GGCCGGCAUGGUCCCAGCCUCCUCGCUGGCGCCGGGUGGGCAACAUUCCGAGGGGACCGUCCCCUCGGUAAUUGCGAAUGGGACCCA | 0.0326
GGCCGGCAUGGUCCCAGCCUCCUCGCUGGCGCCGGGUGGGCAACAUUCCGAUGGGACCGUCCCCUCGGUAAUGGCGAAUGGGACCCA | 0.14
GGCCGGCAUGGUCCCAGCCUCCUCGCUGGCGCCGGGUGGGCAACAUUCCGAGUGGACCGUCCCCUCGGUAAUGGCGAAUGGGACCCA | 0.148
GGCCGGCAUGGUCCCAGCCUCCUCGCUGGCGCCGGGUGGGCAACAUUCCGAGAGGACCGUCCCCUCGGUAAUGGCGAAUGGGACCCA | 0.0959
